Measured values: PMC7320042
Like-named read-outs stand apart in the source and are kept apart here.

Columns and labels:
recombinant trypsin [1] = target: recombinant trypsin (UniProt P00761)
recombinant trypsin [2] = target: recombinant trypsin (UniProt P00761); assay: enzyme inhibition titration; trypsin (1.35 mg/mL) inhibited by increasing contents of rSKTI; residual activity on BAEE, 67 mM phosphate buffer pH 7.6, 25 °C; ratio worked out from the concentrations of trypsin and rSKTI
recombinant trypsin [3] = target: recombinant trypsin (UniProt P00761); assay: enzyme inhibition kinetics (Lineweaver-Burk); trypsin (1.35 mg/mL stock) activity on BAEE (0.01-0.075 mM) with and without SKTI or rSKTI (0.63 mg/mL stock); 25 °C, 67 mM phosphate buffer pH 7.6; KI from Vmax/V'max = 1 + [I]/KI
recombinant trypsin [4] = target: recombinant trypsin (UniProt P00761); assay: as above; remark: listed apart in the source

Chain of UniProt P00761 (P00761 whole entry): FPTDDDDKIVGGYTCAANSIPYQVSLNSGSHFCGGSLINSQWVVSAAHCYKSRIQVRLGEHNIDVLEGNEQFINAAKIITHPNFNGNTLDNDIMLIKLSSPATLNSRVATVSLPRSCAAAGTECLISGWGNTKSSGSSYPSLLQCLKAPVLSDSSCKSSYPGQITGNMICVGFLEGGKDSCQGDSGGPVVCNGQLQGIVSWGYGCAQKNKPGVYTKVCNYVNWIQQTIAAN

Row | Binder | inhibition of trypsin (1.35 mg/mL) activity on BAEE by increasing rSKTI: IC50, the amount of rSKTI when half trypsin activity was inhibited; activity completely inhibited at 1.5 mg/mL rSKTI (recombinant trypsin [1]) | stoichiometry N (recombinant trypsin [2]) | Ki (recombinant trypsin [3]) | Ki (recombinant trypsin [4])
1 | recombinant soybean Kunitz trypsin inhibitor (natural protein) DFVLDNEGNPLENGGTYYILSDITAFGGIRAAPTGNERCPLTVVQSRNELDKGIGTIISSPYRIRFIAEGHPLSLKFDSFAVIMLCVGIPTEWSVVEDLPEGPAVKIGENKDAMDGWFRLERVSDDEFNNYKLVFCPQQAEDDKCGDIGISIDHDDGTRRLVVSKNKPLVVQFQKLDKESL | 500 µg/mL | 1 | 2200 nM | 2290 nM
2 | natural soybean Kunitz trypsin inhibitor (natural protein) DFVLDNEGNPLENGGTYYILSDITAFGGIRAAPTGNERCPLTVVQSRNELDKGIGTIISSPYRIRFIAEGHPLSLKFDSFAVIMLCVGIPTEWSVVEDLPEGPAVKIGENKDAMDGWFRLERVSDDEFNNYKLVFCPQQAEDDKCGDIGISIDHDDGTRRLVVSKNKPLVVQFQKLDKESL | – | – | 1670 nM | –
